Test results reported in publication PMC2873289, “A Helix Replacement Mechanism Directs Metavinculin Functions” (PLoS ONE, 2010).

Experiments:
[1] = biological target: the molecule itself; experiment: band on SDS-PAGE of the pull-down eluate, identified by Western blot; band seen in the lanes where GST-Vt and PIP2 are present
[2] = biological target: T1, metavinculin-ΔH1′ (lacking residues 963–983) (human, UniProt P18206 1-1134, lacking residues 963–983); experiment: pull-down; GST-Vt (0.5 µM) on GST-Sepharose beads, with or without pre-incubation with 5 µM PIP2; 15 µM His8-tagged metavinculin or deletion mutant pre-activated with talin-VBS3, 1 hr 37°C; 20 mM Tris-HCl pH 8, 150 mM NaCl; eluted with glutathione, SDS-PAGE, Western blot; settings: both partners purified
T1 construct: human metavinculin, full length (1-1,134) lacking residues 963-983 (α-helix H1′): 1-962 joined to 984-1,134; also called MV-ΔH1′; source: E. coli BL21-DE3, purified (as full-length metavinculin); not shown: His8, N-terminal, kept
T1 sequence (looked up): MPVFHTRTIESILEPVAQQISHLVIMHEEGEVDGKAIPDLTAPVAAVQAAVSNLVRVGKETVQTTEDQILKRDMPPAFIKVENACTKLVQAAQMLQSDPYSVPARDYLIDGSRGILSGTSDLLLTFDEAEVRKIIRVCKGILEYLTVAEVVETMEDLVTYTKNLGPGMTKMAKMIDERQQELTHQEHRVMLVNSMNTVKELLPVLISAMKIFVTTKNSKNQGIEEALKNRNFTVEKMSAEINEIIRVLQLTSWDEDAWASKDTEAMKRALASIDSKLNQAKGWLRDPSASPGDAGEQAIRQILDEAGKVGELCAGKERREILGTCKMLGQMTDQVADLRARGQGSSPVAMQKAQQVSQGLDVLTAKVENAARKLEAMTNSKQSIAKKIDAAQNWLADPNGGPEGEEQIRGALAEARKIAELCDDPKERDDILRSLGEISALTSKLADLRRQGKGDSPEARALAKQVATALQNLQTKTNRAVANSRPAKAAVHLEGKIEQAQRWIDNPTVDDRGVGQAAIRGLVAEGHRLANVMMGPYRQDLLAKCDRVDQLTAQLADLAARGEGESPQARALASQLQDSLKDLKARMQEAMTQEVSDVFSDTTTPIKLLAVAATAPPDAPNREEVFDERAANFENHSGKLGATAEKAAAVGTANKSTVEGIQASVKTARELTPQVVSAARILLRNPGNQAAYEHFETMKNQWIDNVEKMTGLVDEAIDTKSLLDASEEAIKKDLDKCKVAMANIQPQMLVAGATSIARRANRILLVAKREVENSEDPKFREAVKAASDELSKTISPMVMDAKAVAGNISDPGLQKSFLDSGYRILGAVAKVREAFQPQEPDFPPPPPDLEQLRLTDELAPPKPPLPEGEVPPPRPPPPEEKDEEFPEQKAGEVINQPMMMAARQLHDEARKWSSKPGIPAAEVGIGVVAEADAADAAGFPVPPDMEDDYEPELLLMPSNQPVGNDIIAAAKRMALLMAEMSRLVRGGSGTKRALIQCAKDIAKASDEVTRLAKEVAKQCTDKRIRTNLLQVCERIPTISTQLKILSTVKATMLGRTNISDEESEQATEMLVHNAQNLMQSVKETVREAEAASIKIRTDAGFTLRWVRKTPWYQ

binding result [2]: binds
B1: GST tagged vinculin tail domain (GST-Vt; residues 879–1,066) (domain or fragment, human, UniProt P18206-2 879-1066, looked up)
chain: EEKDEEFPEQKAGEVINQPMMMAARQLHDEARKWSSKGNDIIAAAKRMALLMAEMSRLVRGGSGTKRALIQCAKDIAKASDEVTRLAKEVAKQCTDKRIRTNLLQVCERIPTISTQLKILSTVKATMLGRTNISDEESEQATEMLVHNAQNLMQSVKETVREAEAASIKIRTDAGFTLRWVRKTPWYQ
notes: human vinculin tail domain, residues 879-1,066 of vinculin (1,066-residue isoform), cloned in pGEX-4T-1; source: E. coli BL21-DE3, purified (GSTrap FF, Superdex 75)
stoichiometry N [1]: 2
